# According to paper PMC4441793:
# Assays:
# [1] = target: HIV-1 reverse transcriptase p51 subunit (residues 1-440) (human immunodeficiency virus type 1 (HIV-1)); assay: SEC-MALS
# [2] = target: HIV-1 reverse transcriptase p66 subunit (immature RT precursor) (human immunodeficiency virus type 1 (HIV-1)); assay: SEC-MALS
Substance,percent dimer in the NMR sample [1] [%],stoichiometry N [1],stoichiometry N [2]
HIV-1 reverse transcriptase p51 subunit (residues 1-440) (domain or fragment),< 60,2,–
HIV-1 reverse transcriptase p66 subunit (immature RT precursor) (enzyme),–,–,2
